Five molecules from paper PMC9299196, “Profiling the specificity of clonally expanded plasma cells during chronic viral infection by single‐cell analysis” (European Journal of Immunology, 2021) can be followed below.

Assay [1] has as its target T1, LCMV clone 13 nucleocapsid protein (NP), purified recombinant (LCMV clone 13 (stand-in: strain …, UniProt P09992, strain)).
T1 construct: also called LCMV NP; viral NP protein
As to the kind of experiment: ELISA. The following applies: one partner purified.

For assay [2], the target named is T1, LCMV clone 13 nucleocapsid protein ….
For assay [3], the target named is T2, LCMV clone 13 nucleocapsid protein (NP), purified recombinant (Lymphocytic choriomeningitis virus …, UniProt P09992 1-558).
T2 chain: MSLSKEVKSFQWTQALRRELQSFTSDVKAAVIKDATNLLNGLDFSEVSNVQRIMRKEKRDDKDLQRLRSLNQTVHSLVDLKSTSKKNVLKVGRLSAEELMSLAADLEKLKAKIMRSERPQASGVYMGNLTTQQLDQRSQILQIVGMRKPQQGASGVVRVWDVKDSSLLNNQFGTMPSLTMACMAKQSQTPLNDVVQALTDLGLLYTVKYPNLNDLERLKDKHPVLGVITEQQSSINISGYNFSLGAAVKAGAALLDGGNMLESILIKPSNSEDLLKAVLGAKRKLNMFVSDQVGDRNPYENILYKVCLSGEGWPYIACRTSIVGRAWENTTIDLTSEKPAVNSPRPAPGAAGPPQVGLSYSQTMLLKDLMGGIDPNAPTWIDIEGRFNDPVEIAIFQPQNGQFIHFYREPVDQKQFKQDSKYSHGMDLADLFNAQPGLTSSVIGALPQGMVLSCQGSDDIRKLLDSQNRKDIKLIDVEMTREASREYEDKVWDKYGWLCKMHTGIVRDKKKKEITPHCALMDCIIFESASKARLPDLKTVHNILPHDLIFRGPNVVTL
As to the kind of experiment: BLI. On the technique in general: Biolayer interferometry detects binding as a change in optical thickness at a sensor tip.

Read-outs that look alike come from different tables or passages of the source.

B1: NP-specific IgG clone other than the second most expanded clone (antibody, V domains shown)
VH: QVQLQQSDAELVKPGASVKISCKVSGYTFTDHTIHWMKQRPEQGLEWIGYIYPRDGSTKYNEKFKGKATLTADKSSSTAYMQLNSLTSEDSAVYFCARGGYYGFYYFDYWGQGTTLTVSS
VL: DIVLTQSPASLAVSLGQRATISCRASESVEYYGTSLMQWYQQKPGQPPKLLIYAASNVESGVPARFSGSGSGTDFSLNIHPVEEDDIAMYFCQQSWKVPYTFGGGTKLEIK
notes: also called one of the two NP-specific clones
On to B1, for which the binding result in assay [1] is given as “binds”.

B2: Rank2.4 (antibody, V domains shown)
VH: EVQLQQSGPELVKPGASVKMSCKASGYTFTDYNMHWVKQSHGKSLEWFGYIDPNNGGIRYNQLFKGKATLTVNKTSRIAYMELRSLTSEDSAVYYCAREGGYWYFDVWGTGTTVIVSS
VL: DIVMTQSHKFKSTPVGDRVSITCKASQDVSTAVAWYQQKPGQSPKLLIYWASTRHTGVPDRFTGSGSGTDYTLTISSVQAEDLALYYCQQHYSTPFTFGSGTKLEIK
On to B2, for which, in assay [2], the binding result is “binds”.

B3: NP-specific, second most expanded IgG clone, most expanded antibody variant (antibody, V domains shown)
VH: EVQLQQSGPELVKPGASVKMSCKASGYTFTDYNMHWVKQSHGKSLEWIGYINPNNGGTSYNQKFKGKATLTVNKSSSTAYMELRSLTSEDSAVYYCAREGGYWYFDVWGTGTTVTVSS
VL: DIVMTQSHKFMSTSVGDRVSITCKASQDVSTAVAWYQQKPGQSPKLLIYWASTRHTGVPDRFTGSGSGTDYTLTISSVQAEDLALYYCQQHYSTPFTFGSGTKLEIK
notes: also called second most expanded clone; previously tested variant
The Kd is a measure of binding affinity in units of concentration. For B3, the binding result in assay [1] was “binds”. In addition, the dissociation constant (Kd) in assay [3] is 470 nM.

B4: Rank2.5 (antibody, V domains shown)
VH: EVQLQQSGPELVKPGASVKMSCKASGYTFTDYNMHWVKQSHGKSLEWIGYINPNNGGSRYNQKFKGKATLTGNKSSSTAYMELRSLTSEDSAVYYCAREGGYWYFDVWGTGTTVTVSS
VL: DIVMTQSHKFMSTSVGDRVSITCKASQDVSTAIAWYQQKPGQSPKLLIYWASTRHTGVPDRFTGSGSGTDYTLTISSVQAEDLALYYCQQHYSTPFTFGSGTKLEIK
Turning to B4, in assay [2], the binding result is listed as “binds”.

B5: third additionally expressed variant of the second most expanded IgG clone (single-reactive) (antibody, V domains shown)
VH: EVQLQQSGPELVKPGASVKMSCKASGYTFIDYNMHWVKQSHGKSLEWIGYINPNNGGTNYNQKFKGKATLTVNKSSSTAYMELRSLTSEDSAVYYCAREGGYWYFDVWGTGTTVTVSS
VL: DIVMTQSHKFMSTSVGDRVSITCKASQDVSTAVAWYQQKPGQSPKLLIYWASTRHTGVPDRFTGSGSGTDYTLTISSVQAEDLALYYCQQHYSTPFTFGSGTELEIK
notes: also called one of the three tested variants; single-reactive antibody
B5: the binding result in assay [1] is “binds”. For the same molecule, the Kd in assay [3] was 370 nM.
